Measured values published in patent publication US8147817B2, “IL-33 in the treatment and diagnosis of diseases and disorders” (The Brigham and Women's Hospital, Inc., priority 2006, dated 2012).
“Also recorded” adds a separate entry of the source.

Legend:
[1] = tested on: rat neonatal cardiomyocytes; test: In vitro cell size measurement of cardiomyocytes; assay type: cell-based; conditions: with or without angiotensin-II (0.1 μM), IL-33 (10 ng/ml), anti-ST2 antibody (100 μg/ml)
Procedure: Sarcomeric α-actinin staining for cardiomyocytes and BrdUrd labeling for cardiac fibroblasts were performed as described previously (5). Mouse monoclonal antibody to sarcomeric α-actinin (EA-53, Sigma) was diluted 1:100 and used. For cardiomyocyte size, cells were visualized using an inverted fluorescent microscope (IX-70; Olympus), and the surface area of the cardiomyocytes was calculated with ImagePro Express software. Cells from randomly selected fields were analyzed.
Cell culture of rat neonatal cardiomyocytes and cardiac fibroblasts was performed as previously described (42, 43). Briefly, hearts from 1-3 day-old Sprague-Dawley rat neonates (Charles River) were digested with trypsin (1 mg/ml, GIBCO) and collagenase-II (0.8 mg/ml, Worthington), and plated on non-coated culture dishes for 1.5 hrs. Attached cells were further cultured with Dulbecco's Modified Essential Medium (GIBCO) containing 10% fetal bovine serum and used as cardiac fibroblasts after 2 passages. […]
Immunofluorescence staining on paraffin-embedded mice hearts or rat neonatal cardiomyocyte cell culture was performed as described previously (42, 45). […] For measuring cardiomyocyte size, the surface area of the cells was calculated with ImagePro Express software. Cells from randomly selected fields were analyzed.

[2] = tested on: IκBα; test: IκBα phosphorylation by Western analysis in cardiac fibroblasts; assay type: cell-based, rat
Procedure: Western analyses were performed as described previously (45). Membranes were incubated with primary antibodies overnight (anti-p44/42MAPK diluted 1:500; phospho-p44/42MAPK (Thr202/Tyr204) 1:1000; phospho-JNK (Thr183/Tyr185) 1:500; p38MAPK 1:500; phospho-p38MAPK (Thr180/Tyr182) 1:500; phospho-Akt (Ser473) 1:1000 and phospho-IκBα 1:1000, all from Cell Signaling, anti-mouse ST2L, from R&D 1:1000 and anti-IL-33 as described above, 1:500) at 4° C., detected with horseradish peroxidase-conjugated antibodies and enhanced chemiluminescence.

[3] = tested on: lungs of Sham-operated mice; test: Lung histology of Sham-operated mice after IL-33 treatment; assay type: in vivo, mouse; conditions: 2 μg/day rat IL-33 for 7 days
Procedure: Targeted ST2−/− mice and their WT littermates were employed for the experiments. […] All operative procedures were performed by a single operator with over 20 years rodent cardiac surgery experience who was blinded to genotype and the randomized treatment assignment. Following the procedure, each mouse received daily i.p. injection of recombinant rat IL-33 (2 μg) or vehicle from the day after TAC operation until the day of harvest.

[4] = tested on: rat neonatal cardiomyocytes; test: Cardiomyocyte apoptosis assays (H2O2 stimulus); assay type: cell-based
Procedure: For cardiomyocyte apoptosis assays, cardiomyocytes were plated overnight, cultured serum-free for 24 hours, and then subjected to 0.1 mM H2O2 for another 24 hours with or without treatment with purified rat mature IL-33 protein. TUNEL staining (FIG. 19) was performed using a TUNEL staining kit (Roche Diagnostics Corp., Indianapolis, Ind.). For DNA fragmentation experiments (FIGS. 19 and 20), cells were trypsinized, fixed with ethanol, incubated in RNase, stained with propidium iodide, and then subjected to flow cytometry (Cytomics FC 500; Beckman Coulter).
Membranes (PVDF, PerkinElmer) were incubated with primary antibodies overnight (anti-cleaved caspase-3, 1:1000; from Cell Signaling Technology) at 4° C., detected with horseradish peroxidase-conjugated antibodies (Bio-Rad) and enhanced chemiluminescence (FIG. 20).

[5] = tested on: cardiac fibroblasts; test: Cardiac fibroblast proliferation; assay type: cell-based, rat
Procedure: A 3-(4,5-dimethylthiazol-2-yl)-5-(3-carboxymethoxyphenyl)-2-(4-sulfophenyl)-2H-tetrazolium salt (MTS) assay was performed with CellTiter 96 AQueous One Solution Cell Proliferation Assay kit (Promega, Madison, Wis.). Actual cell number in each group was also counted manually after exclusion of dead cells by Trypan blue staining. Cell cycle of cardiac fibroblasts was analyzed as previously described (9). Briefly, cardiac fibroblasts were seeded at a density of 1.5×10^5 cells per 60 mm dishes and serum-starved for 24 hrs. After treatment, cells were trypsinized, fixed in 80% ethanol at −20° C. and labeled with 50 ug/ml propidium iodide (Sigma) with 50 ug/ml RNaseA (Sigma). Then propidium iodide fluorescence was analyzed by flow cytometer (CYTOMICS FC500, Beckman Coulter, Fullerton, Calif.). Total population was initially gated to remove cell debris, and 1×10^4 cells were assessed for each DNA histogram using CXP software (Beckman Coulter).

B1: IL-33: recombinant mature rat IL-33, starting with amino acid 109 of the full-length protein, N-terminal His tag (GenBank BC081993) (protein)
chain: SIQGTSLLTESCALSTYNDQSVSFVLENGCYVINVEDCGKNQEKDKVLLRYYESSFPAQSGDGVDGKKLMVNMSPIKDTDIWLNANDKDYSVELQKGDVSPPDQAFFVLHKKSSDFVSFECKNLPGTYIGVKDNQLALVEENDESCNNIMFKLSKM
modifications: left off: small tags and cut ends
- cardiomyocyte cell size [1]: antihypertrophic effect of IL-33 was further confirmed
- IκBα phosphorylation by agent alone [2]: induced IκBα phosphorylation in both cell types
- inflammatory changes in lung ([3]; ST2−/− mice): None of these changes were observed; also recorded: These changes were not observed
- epithelial lining of the airways ([3]; WT mice): remained unchanged
- infiltration of inflammatory cells in lung ([3]; WT mice): Mild infiltration of inflammatory cells within vessel walls and adjacent to the vessels; also recorded: mild focal infiltrations of inflammatory cells
- apoptosis (TUNEL staining, flow cytometry and caspase-3 evaluation together) [4]: can prevent apoptosis in cardiac myocytes
- apoptosis by TUNEL staining [4]: can prevent apoptosis in cardiac myocytes; also recorded: can reduce apoptosis in cardiac myocytes
- apoptosis by caspase-3 activation [4]: can prevent apoptosis in cardiac myocytes
- apoptosis by flow cytometry after propidium iodide staining [4]: can prevent apoptosis in cardiac myocytes
- cardiac fibroblast proliferation, IL-33 alone [5]: can induce cardiac fibroblast proliferation
- cardiac fibroblast proliferation induced by angiotensin II ([5]; co-treatment with IL-33): antagonizes cardiac fibroblast proliferation induced by angiotensin II; also recorded: antagonizes the proliferation induced by angiotensin II
